Common to all, as to assay: receptor-Fc IP
For one test, the target named is T1, VEGFR-3-Fc (UniProt P35916 25-328).
T1 construct: domain: first three Ig domains; conditioned supernatant of 293T cells; also called VEGFR-3-Fc fusion protein; not shown: Fc fragment of the pIg vector
T1 sequence (looked up): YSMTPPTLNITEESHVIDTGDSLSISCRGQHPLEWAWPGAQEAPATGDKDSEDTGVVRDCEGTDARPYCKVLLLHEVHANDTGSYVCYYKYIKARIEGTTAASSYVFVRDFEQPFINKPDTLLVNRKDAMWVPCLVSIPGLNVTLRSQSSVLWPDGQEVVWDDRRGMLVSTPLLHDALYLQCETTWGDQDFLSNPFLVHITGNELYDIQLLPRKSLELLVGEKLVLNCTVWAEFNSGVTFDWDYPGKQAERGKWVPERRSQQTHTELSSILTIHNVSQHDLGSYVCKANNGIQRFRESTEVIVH
The gist of the method: (§1)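 fusion protein at 400 ng/ml in an IP mix (PBS, 1.5% BSA, 0.06% Tween 20, 3 μg/ml heparin) was combined with sample supernatant at a 1:2 ratio. Bound ligand captured by immunoprecipitation with pentahistidine antibody.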

Another test concerns the target T2, VEGFR-1-Fc (UniProt P17948 27-338).
T2 construct: domain: first three Ig domains; expressed in Drosophila S2 cells, purified on Protein A sepharose; also called VEGFR-1-Fc fusion protein; not shown: Fc fragment from the Signal-pIgPlus vector
The gist of the method:
as §1

The next test has as its target T3, VEGFR-2-Fc (UniProt P35968 20-322).
T3 construct: domain: first 3 Ig domains; conditioned supernatant of 293T cells; also called VEGFR-2-Fc fusion protein; not shown: Fc fragment of the pIg vector
The gist of the method:
as §1

T3 sequence (P35968 20-322): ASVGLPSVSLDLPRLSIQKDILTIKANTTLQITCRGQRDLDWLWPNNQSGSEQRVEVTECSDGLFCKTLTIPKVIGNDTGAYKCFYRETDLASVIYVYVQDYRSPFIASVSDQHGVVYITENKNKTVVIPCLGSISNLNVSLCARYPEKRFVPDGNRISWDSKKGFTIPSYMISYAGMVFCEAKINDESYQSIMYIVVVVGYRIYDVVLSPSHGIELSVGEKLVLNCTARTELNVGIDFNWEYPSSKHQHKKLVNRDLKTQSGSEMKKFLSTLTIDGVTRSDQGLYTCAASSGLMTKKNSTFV
T2 sequence (P17948 27-338): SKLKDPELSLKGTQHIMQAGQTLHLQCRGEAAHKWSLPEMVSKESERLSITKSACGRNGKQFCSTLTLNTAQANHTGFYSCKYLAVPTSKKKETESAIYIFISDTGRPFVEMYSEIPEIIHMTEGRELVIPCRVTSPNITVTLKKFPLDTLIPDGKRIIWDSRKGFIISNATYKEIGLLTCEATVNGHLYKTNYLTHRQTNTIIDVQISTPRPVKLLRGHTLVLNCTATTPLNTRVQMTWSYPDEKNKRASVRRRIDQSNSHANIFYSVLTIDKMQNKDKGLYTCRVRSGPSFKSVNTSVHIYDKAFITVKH

B1: 84-7 (ligand)
chain: AHYNTEILKFMDVYQRSYCHPIETLVDIFQEFGVATNTFFKPSCVPLMRCGGCCNSEGLQCVPTEESNITMQIMRIKPHQGQHIGEMSFANHTSCRCMSKLD
B1: the binding result in the test with VEGFR-3-Fc, with VEGFR-1-Fc and with VEGFR-2-Fc was “no binding” throughout.

B2: 53-6 (ligand)
chain: AHYNTEILKSIDNEWRKTQCMPIETLVDIFQEYPDEIEYIFKPPCVSVYRCGGCCNDEGLECMNTSTSYLSKTLFEIKPHQGQHIGEMSFANHTSCRCMSKLD
As for B2, the binding result with VEGFR-3-Fc, with VEGFR-1-Fc and in the test with VEGFR-2-Fc was “no binding” throughout.

B3: 73-6 (ligand)
chain: GQNHHEVVKSIDNEWRKTQCMPREVCIDVGKEYPDEIEYIFKPPCVSVYRCGGCCNDEGLECMNTSTSYLSKTLFEIKPHQGQHIGEMSFANHTSCRCMSKLD
For the molecule B3, the binding result with VEGFR-3-Fc, with VEGFR-1-Fc and with VEGFR-2-Fc was “no binding” in each case.

B4: 71-6 (ligand)
chain: GQNHHEVVKSIDNEWRKTQCMPREVCIDVGKEYPDEIEYIFKPSCVPLMRCGGCCNDEGLECMNTSTSYLSKTLFEIKPHQGQHIGEMSFANHTSCRCMSKLD
Take B4: the binding result with VEGFR-3-Fc, with VEGFR-1-Fc and in the test with VEGFR-2-Fc was “no binding” each time.

B5: 73-8 (ligand)
chain: GQNHHEVVKSIDNEWRKTQCMPREVCIDVGKEYPDEIEYIFKPPCVSVYRCGGCCNSEGLQCMNTSTSYLSKTLFEIKPHQGQHIGEMSFANHTSCRCMSKLD
Turning to B5, the binding result with VEGFR-3-Fc, with VEGFR-1-Fc and with VEGFR-2-Fc was “no binding” throughout.

B6: 53-8 (ligand)
chain: AHYNTEILKSIDNEWRKTQCMPIETLVDIFQEYPDEIEYIFKPPCVSVYRCGGCCNSEGLQCMNTSTSYLSKTLFEIKPHQGQHIGEMSFANHTSCRCMSKLD
Take B6: the binding result with VEGFR-3-Fc, in the test with VEGFR-1-Fc and in the test with VEGFR-2-Fc was “no binding” throughout.

B7: 22-13 (ligand)
chain: AHYNTEILKSIDNEWRKTQCMPREVCIDVGKEFGVATNTFFKPPCVSVYRCGGCCNDEGLECVPTEESNITMQIMRITVPLSQGPKPVTISFANHTSCRCMSKLD
On to B7, for which the binding result with VEGFR-3-Fc, with VEGFR-1-Fc and with VEGFR-2-Fc was “no binding” throughout.

B8: 22-15 (ligand)
chain: AHYNTEILKSIDNEWRKTQCMPREVCIDVGKEFGVATNTFFKPPCVSVYRCGGCCNSEGLQCVPTEESNITMQIMRITVPLSQGPKPVTISFANHTSCRCMSKLD
As to B8, the binding result with VEGFR-3-Fc, with VEGFR-1-Fc and with VEGFR-2-Fc was “no binding” each time.

B9: 13-1 (ligand)
chain: GQNHHEVVKFMDVYQRSYCHPIETLVDIFQEYPDEIEYIFKPPCVSVYRCGGCCNDEGLECVPTEESNITMQIMRIKPHQGQHIGEMSFLQHNKCECRPKKD
As to B9, the binding result is on record as “no binding” with VEGFR-3-Fc, “binds” in the test with VEGFR-1-Fc and “binds” with VEGFR-2-Fc.

B10: 13-5 (ligand)
chain: GQNHHEVVKFMDVYQRSYCHPIETLVDIFQEYPDEIEYIFKPPCVSVYRCGGCCNDEGLECVPTEESNITMQIMRIKPHQGQHIGEMSFANHTSCRCMSKLD
Consider B10, for which the binding result with VEGFR-3-Fc is listed as “no binding”; in the test with VEGFR-1-Fc, “binds”; with VEGFR-2-Fc it was “binds”.

B11: 13-7 (ligand)
chain: GQNHHEVVKFMDVYQRSYCHPIETLVDIFQEYPDEIEYIFKPPCVSVYRCGGCCNSEGLQCVPTEESNITMQIMRIKPHQGQHIGEMSFANHTSCRCMSKLD
Turning to B11, the binding result in the test with VEGFR-3-Fc is “no binding”; with VEGFR-1-Fc, “binds”; with VEGFR-2-Fc, “binds”.

B12: 81-9 (ligand)
chain: AHYNTEILKFMDVYQRSYCHPIETLVDIFQEYPDEIEYIFKPSCVPLMRCGGCCNDEGLECVPTEESNITMQIMRITVPLSQGPKPVTISFLQHNKCECRPKKD
Consider B12, for which the binding result in the test with VEGFR-3-Fc was “no binding”; with VEGFR-1-Fc, “binds”; in the test with VEGFR-2-Fc, “no binding”.

B13: 81-15 (ligand)
chain: AHYNTEILKFMDVYQRSYCHPIETLVDIFQEYPDEIEYIFKPSCVPLMRCGGCCNSEGLQCVPTEESNITMQIMRITVPLSQGPKPVTISFANHTSCRCMSKLD
B13: the binding result is recorded as “no binding” in the test with VEGFR-3-Fc, “binds” with VEGFR-1-Fc and “binds” with VEGFR-2-Fc.

B14: 81-11 (ligand)
chain: AHYNTEILKFMDVYQRSYCHPIETLVDIFQEYPDEIEYIFKPSCVPLMRCGGCCNSEGLQCVPTEESNITMQIMRITVPLSQGPKPVTISFLQHNKCECRPKKD
For B14, the binding result with VEGFR-3-Fc is “no binding”; with VEGFR-1-Fc, “binds”; with VEGFR-2-Fc it was “binds”.

B15: 81-13 (ligand)
chain: AHYNTEILKFMDVYQRSYCHPIETLVDIFQEYPDEIEYIFKPSCVPLMRCGGCCNDEGLECVPTEESNITMQIMRITVPLSQGPKPVTISFANHTSCRCMSKLD
For the molecule B15, the binding result with VEGFR-3-Fc is given as “no binding”; with VEGFR-1-Fc, “binds”; in the test with VEGFR-2-Fc, “no binding”.

B16: 31-1 (ligand)
chain: GQNHHEVVKSIDNEWRKTQCMPIETLVDIFQEYPDEIEYIFKPSCVPLMRCGGCCNDEGLECVPTEESNITMQIMRIKPHQGQHIGEMSFLQHNKCECRPKKD
Consider B16, for which the binding result with VEGFR-3-Fc, with VEGFR-1-Fc and in the test with VEGFR-2-Fc was “no binding” throughout.

B17: 13-9 (ligand)
chain: GQNHHEVVKFMDVYQRSYCHPIETLVDIFQEYPDEIEYIFKPPCVSVYRCGGCCNDEGLECVPTEESNITMQIMRITVPLSQGPKPVTISFLQHNKCECRPKKD
B17: the binding result with VEGFR-3-Fc is given as “no binding”; in the test with VEGFR-1-Fc, “binds”; with VEGFR-2-Fc it was “no binding”.

B18: 13-11 (ligand)
chain: GQNHHEVVKFMDVYQRSYCHPIETLVDIFQEYPDEIEYIFKPPCVSVYRCGGCCNSEGLQCVPTEESNITMQIMRITVPLSQGPKPVTISFLQHNKCECRPKKD
Consider B18, for which the binding result is recorded as “no binding” with VEGFR-3-Fc, “binds” with VEGFR-1-Fc and “no binding” in the test with VEGFR-2-Fc.

B19: 12-14 (ligand)
chain: GQNHHEVVKFMDVYQRSYCHPIETLVDIFQEFGVATNTFFKPPCVSVYRCGGCCNDEGLECMNTSTSYLSKTLFEITVPLSQGPKPVTISFANHTSCRCMSKLDL
For the molecule B19, the binding result is “binds” with VEGFR-3-Fc, “no binding” with VEGFR-1-Fc and “no binding” with VEGFR-2-Fc.

B20: 14-1 (ligand)
chain: GQNHHEVVKFMDVYQRSYCHPIETLVDIFQEFGVATNTFFKPSCVPLMRCGGCCNDEGLECVPTEESNITMQIMRIKPHQGQHIGEMSFLQHNKCECRPKKD
As to B20, the binding result with VEGFR-3-Fc is on record as “no binding”; with VEGFR-1-Fc, “binds”; with VEGFR-2-Fc, “no binding”.

B21: 14-3 (ligand)
chain: GQNHHEVVKFMDVYQRSYCHPIETLVDIFQEFGVATNTFFKPSCVPLMRCGGCCNSEGLQCVPTEESNITMQIMRIKPHQGQHIGEMSFLQHNKCECRPKKD
Regarding B21, the binding result is recorded as “no binding” in the test with VEGFR-3-Fc, “binds” with VEGFR-1-Fc and “binds” in the test with VEGFR-2-Fc.

B22: 14-5 (ligand)
chain: GQNHHEVVKFMDVYQRSYCHPIETLVDIFQEFGVATNTFFKPSCVPLMRCGGCCNDEGLECVPTEESNITMQIMRIKPHQGQHIGEMSFANHTSCRCMSKLD
For B22, the binding result in the test with VEGFR-3-Fc is on record as “no binding”; in the test with VEGFR-1-Fc, “binds”; in the test with VEGFR-2-Fc, “no binding”.

B23: 14-7 (ligand)
chain: GQNHHEVVKFMDVYQRSYCHPIETLVDIFQEFGVATNTFFKPSCVPLMRCGGCCNSEGLQCVPTEESNITMQIMRIKPHQGQHIGEMSFANHTSCRCMSKLD
As for B23, the figures for the binding result in the test with VEGFR-3-Fc, in the test with VEGFR-1-Fc and in the test with VEGFR-2-Fc were “no binding”, “no binding” and “binds”, respectively.

Values taken from patent US20080058263A1 (published 2008).
